Test results taken from article PMC9191634.
Where “and” joins values, the source holds several entries; their conditions need not be identical. Equal values may be shown once.

Legend:
[1] = target: human voltage-gated proton channel hHv1 (human) (UniProt Q96D96)
[2] = target: hHv1-D185C (human) (UniProt Q96D96); assay: whole-cell patch clamp (block of H+ current)
[3] = target: hHv1-E192C (human) (UniProt Q96D96); assay: whole-cell patch clamp (block of H+ current)
[4] = target: hHv1-E196C (human) (UniProt Q96D96); assay: whole-cell patch clamp (block of H+ current)
[5] = target: hHv1-G199C (human) (UniProt Q96D96); assay: whole-cell patch clamp (block of H+ current)
[6] = target: hHv1-H193C (human) (UniProt Q96D96); assay: whole-cell patch clamp (block of H+ current)
[7] = target: hHv1-L200C (human) (UniProt Q96D96); assay: whole-cell patch clamp (block of H+ current)
[8] = target: hHv1-L203C (human) (UniProt Q96D96); assay: whole-cell patch clamp (block of H+ current)
[9] = target: hHv1-R205N (human) (UniProt Q96D96); assay: whole-cell patch clamp (block of H+ current)
[10] = target: hHv1-R211S (human) (UniProt Q96D96); assay: whole-cell patch clamp (block of H+ current)
[11] = target: hHv1-V187C (human) (UniProt Q96D96); assay: whole-cell patch clamp (block of H+ current)
[12] = target: human voltage-gated proton channel hHv1 (human) (UniProt Q96D96); assay: whole-cell patch clamp (block of H+ current)
[13] = target: human voltage-gated proton channel hHv1 (human) (UniProt Q96D96); assay: whole-cell patch clamp (block of H+ current); as a1 but test pulses to +20 mV
[14] = target: human voltage-gated proton channel hHv1, Q96D96-1; assay: whole-cell patch clamp; settings: +40 mV; HEK293T cells; parent: 0.031 ± 0.003 µM
[15] = target: C6 peptide; assay: whole-cell patch clamp; settings: +40 mV, HEK293T cells; for ratio to parent: parent: est. 1.0, read off a plot

C6 peptide (designed binder) showed a fraction of H+ current blocked by 250 nM C6, whole-cell patch clamp in HEK293T cells, -20 mV to +40 mV [1] of 90%, a fold enhancement of C6 inhibition against WT hHv1 [2] of over 4 fold and a Ki mutation/Ki WT [3] of over 43 fold. It also gave a Ki mutation/Ki WT [4] of over 43 fold, a Ki [5] of 1.9 nM and a Ki mutation/Ki WT [6] of over 43 fold. The Ki mutation/Ki WT [7] was over 43 fold, the fold enhancement of C6 inhibition against WT hHv1 [8] was over 4 fold and the Ki [9] was 161 nM. It also gave a koff [9] of 0.19 s⁻¹, a kon [9] of 300000 M⁻¹ s⁻¹ and a Ki [10] of 0.6 nM. The koff [10] was 0.0008 s⁻¹, the kon [10] was 500000 M⁻¹ s⁻¹ and the Ki mutation/Ki WT [11] was over 43 fold. For the same substance, the kon [12] was 300000 M⁻¹ s⁻¹ and 500000 M⁻¹ s⁻¹, the Ki [13] was 4.9 nM and the koff [13] was 0.0043 s⁻¹. The kon [13] was 400000 M⁻¹ s⁻¹.
Substance C6 peptide R36A has a Ki [14] of 15000 nM.
“human voltage-gated proton channel hHv1 (from UniProt Q96D96-1) A197C” showed a ratio to parent [15] of 7.6.
“human voltage-gated proton channel hHv1 (from UniProt Q96D96-1) E192A” was tested, and the Ki ([15]; parent: 0.031 ± 0.003 µM) was 18000 nM.
Work on “human voltage-gated proton channel hHv1 (from UniProt Q96D96-1) F190C” yielded a ratio to parent [15] of 0.62.
For “human voltage-gated proton channel hHv1 (from UniProt Q96D96-1) F195C”, the ratio to parent [15] was 3.6.
Work on “human voltage-gated proton channel hHv1 (from UniProt Q96D96-1) I183C” yielded a ratio to parent [15] of 1.1.
Substance “human voltage-gated proton channel hHv1 (from UniProt Q96D96-1) I186C” has a ratio to parent [15] of 1.4.
“human voltage-gated proton channel hHv1 (from UniProt Q96D96-1) I202C” showed a ratio to parent [15] of 30.
“human voltage-gated proton channel hHv1 (from UniProt Q96D96-1) L184C” showed a ratio to parent [15] of 22.
Work on “human voltage-gated proton channel hHv1 (from UniProt Q96D96-1) L188C” yielded a ratio to parent [15] of 11.
“human voltage-gated proton channel hHv1 (from UniProt Q96D96-1) L189A” gave a ratio to parent [15] of 0.87.
With “human voltage-gated proton channel hHv1 (from UniProt Q96D96-1) L198C” the ratio to parent [15] was 1.4.
“human voltage-gated proton channel hHv1 (from UniProt Q96D96-1) L201C” showed a ratio to parent [15] of 3.6.
“human voltage-gated proton channel hHv1 (from UniProt Q96D96-1) L203A” was tested, and the ratio to parent [15] was 0.28.
“human voltage-gated proton channel hHv1 (from UniProt Q96D96-1) L204C” was tested, and the ratio to parent [15] was 2.3.
In the case of “human voltage-gated proton channel hHv1 (from UniProt Q96D96-1) Q191C”, the ratio to parent [15] is reported as 8.7.
In the case of “human voltage-gated proton channel hHv1 (from UniProt Q96D96-1) Q194C”, the ratio to parent [15] is reported as 6.
In the case of “human voltage-gated proton channel hHv1 (from UniProt Q96D96-1) V187A”, the ratio to parent [15] is reported as 130.
